# According to the DeepSol protein solubility set:
# Assay: soluble on expression in E. coli; label from the status in PepcDB or PDB records
row,Sequence,soluble on expression in E. coli
1,MSLTTDWTTQVAAAAASVTAAEVDTARRALDYLCLAQLYLRDNVTLSTPLQPGHVKPAPAGHWGVCPPVNAVLAALGPYRRMPGTDVRVVHGGGHAGPSALAHAWITGALDTGEDAFGHTEVDLARLCAQFPRTRFGGEITPLIPGHDHLGGQLGPALAIAHGMGLDAPDRLVVAVIGDGECETGATAAAWLGARALIGTGTHGRVLPVILANGLRMGSASLLAALDPCDLARHLGGLGYEVITAGPSTDEITAAVARALTGLRPLQYGPSTVVVVTVDKGHGVPKTVAGQQIAQTPRVHKVPLRNPRDDNAEFVALERWLSGYRPQELFTGGAPTATVRRALAPAATGRVELHAPRGCIAAASAVADRVAGADFGAAITATLRELNTVYGLRVFSPDELASNRIELGAPDSGWTIEVLNEELCHAWAQGYQATGRRGVVVGYEAFAPITASLLAQQLLAHRLAAAAGRPPGPSLVYLLTSLGWHNTITHANPGLIDIAIGTADPSVHIYLPADATRTAAALTFAVRKLGRASLVVASKHPMPAHPHTTIDAELRDGYAVWPHIADDLDPEMVLVSIGDIAARELTRAATTITATRTATRLRYLHIHDLTSLGAPGRRDAAISAADFERLFPPGAAVLIATTCHPAAVHALLGERGAPRTVVVRGWANPPLPMSHDELLDHTGIAATALHEAALALLDSTTCDPLIRQGAREGHHHHHH,soluble
2,MRRHAIILAAGKGTRMKSKKYKVLHEVAGKPMVEHVLESVKGSGVDQVVTIVGHGAESVKGHLGERSLYSFQEEQLGTAHAVQMAKSHLEDKEGTTIVVCGDTPLITKETLETLIAHHEDANAQATVLSASIQQPYGYGRIVRNASGRLERIVEEKDATQAEKDINEISSGIFAFNNKTLFEKLTQVKNDNAQGEYYLPDVLSLILNDGGIVEVYRTNDVEEIMGVNDRVMLSQAEKAMQRRTNHYHMLNGVTIIDPDSTYIGPDVTIGSDTVIEPGVRINGRTEIGEDVVIGQYSEINNSTIENGACIQQSVVNDASVGANTKVGPFAQLRPGAQLGADVKVGNFVEIKKADLKDGAKVSHLSYIGDAVIGERTNIGCGTITVNYDGENKFKTIVGKDSFVGCNVNLVAPVTIGDDVLVAAGSTITDDVPNDSLAVARARQTTKEGYRK,not soluble
3,MSLKKIGIIGAGGIARAHATALSTIKNAELVGVYDINQQNAESFVKTFGGKSFENVDELIDASEGLIVASPNFCHKEHALQALGKHKHVLCEKPMAISLEEASIMKDTAERLSVRASMGFNYRYLSYVNILKSLIINNELGNILSIKVHFKKNSALRRKKFTWRDDANSKKTSGSLGDLGIHLIDMVWYLFESDFITESVRAKMNTNVKTKEDKQVLVDDYAEIYGQLRNKVFVNIITSKCSVPEDCGFSIEVVGHKKEFKYHTGNPHVYKLIDGLNVVDCPVPQSLLNDPPNEFYGWADSFRSELINWIASTQNDWVEIPSFSDGFRSQEVLEMFFEKDSNSQPMSVSAVNEGHHHHHH,soluble
4,FKDFRLGINLNGVYAKNKILFWDEAPGTPEWQKSTGKPIDSGLYYEAIGIFKDQAAVDAYPHWAGARPGDIIFKDVNGDNVIDGNDRVRNDKSRTPRFTGGLNVDLGYKDFDLSFLLQGAMGGVFYQTTESGDFANFLKSFYDNRWTEENPDADFPRTYNRSNEYFINQQNTFWLHKTDYIRLKNIELGYTVPSIWSKKIGVEHLRVYINAYNLLTISPDMKDYDPENTSGSGYNYPLNKVINFGVNLTF,not soluble
5,MPLNRNHSELRSGKVNLKNGDPFTIALFGVDSDEKRKQQGGGERSDTIMVLSINPKEKKTELVSIPRDTKAEIAGRGTEEKINHAYAYGGPNMAVKTIEKLMNVPIDHYATIDMDGLHDMIDTLGGVDVVSNSTFTMGANHFVKGEKTHVDGDAAMDFIRSRKEDGAGGDFGRQERQQLILEAMADKMTSASSITHFNTLMNQIQKNVKTDLKLGDLNTIRTKYKDANDQVNRHQLEGEGGIQNDGLYYFIPSDASKNENTQLLRDNLNLLEHHHHHH,soluble
6,MSASFSNNACYMDVMIEIISLRLRLAIASSDRVPLWPFPSRQYMPTRPGWSRWRHPTVVVEPMRNQNFSYHKCNNKIDSSKHISTLSH,not soluble
7,MSLISLSFFPGAKIGVLGLNGAGKSTLLRIMAGIDKDIDGEARPQPGLKVGYLPQEPKLDESKTVREVVEEAVADVAYALKRLDEVYAAYAEPDADFDALAKEQGELEALIQAKNGHNLDNALERAADALRLPEWDAQVKYLSGGERRRVAICRLLLENPDMLLLDEPTNHLDAESVAWLERFLVDYAGTVVAITHDRYFLDNAAGWILELDRGEGIPWQGNYTSWLEQKDARLKQEASQEKARQKTIEKELEWVRQNPKGRQAKSKARMARFEELQNTEHQKRNETNELFIPPGERLGDKVIEVKNLTKSFDGRVLIDDLSFSMPKGAIVGIIGPNGAGKSTLFKMLSGVEKPDSGTIELGDTVKLASVDQFRDSMNDKHTVFQEISEGADIIRINNFEIPARAYCSRFNFKGVDQQKVIGELSGGERNRVHLAKLLKAGGNVLLLDEPTNDLDVETLRALEEALLEFPGCAMVISHDRWFLDRIATHILDYRDEGKVNFYEGNYTEYMEWLKQTLGAQAAEPHRIKYKRITK,not soluble
8,MSLYYLFAPQFHPSKTVYVYVDRDDTADSIYNKIRQTGHVNKFTGFQWMAKYRKFDQNIHTGRYAIRPNENVYHVFSRFFRGYQEPMNLTIGSIRTLDRLARSIGKQLMIDSAEIARQLFDSAFQTEMGYTPVTMPCLFIPETYQVYWDMSVDDFFKRMQTEHKRFWNDERLAQATAIGMTPEEVCTLASIVEEETNNNEEKPMVAGLYINRLHTGMPLQADPTIKFALQDFGLRRITNEHLKVNSPYNTYINSGLPPGPIRIPSKKGLDSVLNYTKHNYIYMCAKEDFSGTHNFASNYADHMANARKYWKALNERKEGHHHHHH,not soluble
9,MSLNKPKIVILGAGYGGLMTVTRLTKYVGPNDADITLVNKHNYHYETTWMHEASAGTLHHDRCRYQIKDVINQSRVNFVQDTVKAIKIDEKKVVLANGELQYDYLVIGLGAVPETFGIKGLKEYAFPIANINTSRLLREHIELQFATYNTEAEKRPDRLTIVVGGAGFTGIEFLGELAARVPELCKEYDVDRSLVRIICVEAAPTVLPGFDPELVDYAVHYLEENGVEFKIGTAVQECTPEGVRVGKKDEEPEQIKSQTVVWAAGVRGHPIVEEAGFENMRGRVKVNPDLRAPGHDNVFILGDSSLFMNEDTERPYPPTAQIAMQQGITVAKNLGRLIKGGELEEFKPDIKGTVASLGEHNAVGVVYGRKLKGTPASFMKKVIDNRSLFMIGGLGLTLKKGKFKEGHHHHHH,soluble
10,MIPGTIPTSYLVPTADTEATGVVSLSARAAMLNNMDSAPLSNGGDVDLYDAFYQRLLALPESASSETLKDSIYQEMNAFKDPNSGDSAFVSFEQQTAMLQNMLAKVEPGTHLYEALNGVLVGSMNAQSQMTSWMQEIILSGGENKEAIDW,not soluble
11,MEPVLFYGVPHGCSFGSIVALEWLGRPYRLCRIEMPLDTGERTYVRLNPARQTPTLLLEDGRALSESLAILQHLAARDLCRKLGYPQGSAEFDELNFALALLHTECHSAWGALFYLEDADATTTARALTRAARAYGRIDKLLGDRKWLAGEGPSVADAYLAGTARWGRELGYFDLQHDFPRLHRHLEKLEQDPAVRFAHAIEDRLPAQSCGEFRGEVTLAEVASRLLA,not soluble
12,MAHHHHHHMTEYALSLYVTLPSSFPKAAPRATMPYCCHNVPITPPNINPSEALAYQWSSTTSTLVEAVRNAFQNAADCWGPVEPPSMRSVTLQLSGETDRLLQDLVTNPNCLDAYCYQLPIVKLMREASRHTVSEIERVANENTTLRNEVETLEAQVKDLQRYLDEQVSQLQQLEQNRLLLSVGTPEALIKTLEDDVRRMSSDCMTLGRRALDAYKADKGGFQDLLKQYKAQSKATHMLDLKRLSYRAQCAAS,not soluble
13,MAKKSTGFDHDPVRVLVAWNPSSHGAEAIECAAWLARTTNVTVQCVTAFLRPWPSSSGNKLGSKYKKWFKKEAFACEDAVKAAFSRAEIPTAMWADTVSVFCDGTNEAALLSEAAHKFGADIVLLGSEAAAPKGRFLAGSTADALLHSSPQPLGLTPRKPKLSKRGVTRVNFAYTGDATDNTSLIRTARLAAAWDVPLRVLALSPEGFGVPPISDTLELPEDLALEWRENTFAVLDRSRDTVHKAHPDVIVETEIGSGNGWSGAIESLKWKKGDLLCFGSTPLGAFERVFIGSQATEILPYVSVPVLMIPATTKVDKKSKK,soluble
14,FPSKSKMFEALIERIEQTLTSYINASKRKENSTALAVKAILYTVIEFARKNPGVTRILTGHALMFENSELKLRVAKFFDGLELQFVNILQMRKLREGKAFQDERALAGYLVTFCEGQFLRLVRSNFSSNPHQHFEKQWSLIKPLFE,not soluble
15,GDDNEIEIPKAPVLEKAQLALAIKSEEGAVTKTGETTPTDADVNTLTVGVFGVDGWSVIYTKDATPNSDGTKDVGPQEVYAGEAHVVVVANAAPVIQTELAKAKDITDFIETTINLSDETLTKGLTMSSKVLDVTLVANTTNYIGYDDEVGDITVKDISGKEVYGAGPVPLVRDVASIALAGADIGNPENANYESKSFVLKEVFIASAKGVSSVASTEEWGTIEKDFFGDTHFGYLDYKVGLLFLTSPNNIDEGSYKKGLQTKYDALAKKHVENDPALNHEFYVYENTKGEVKSGESNVNEAYANHTLLIVKGDYTYLPQGAKESITKENCYYAIPVGEEVTIDGTEKRSKFYVQRNYKYEISLTIIGPGSEIPYDPMISTNVSASVKVEPWNVKTIHEEVE,soluble
16,MSQLEIRDLWASIDGETILKGVNLVVPKGEVHALMGPNGAGKSTLGKILAGDPEYTVERGEILLDGENILELSPDERARKGLFLAFQYPVEVPGVTIANFLRLALQAKLGREVGVAEFWTKVKKALELLDWDESYLSRYLNEGFSGGEKKRNEILQLLVLEPTYAVLDETDSGLDIDALKVVARGVNAMRGPNFGALVITHYQRILNYIQPDKVHVMMDGRVVATGGPELALELEAKGYEWLKEKVKEGA,soluble
17,MNNSLIVRQLGLQDYQEIWHKMQDFTDTRNAETQDEIWLVQHYPVFTQGQAGKPEHLLQRSEIPVVQSVRGGQITYHAPGQQVMYVLIDIKRHKNLNVRQLVTALEQTVVKTLAEYGIESYPKPDAPGVYVDGKKICSLGLRIRRGCSFHGLALNINMDLNPFHYINPCGYAGLEMCQLADFVNQDKADCDNVSAKLIKHFANLLGYNITTLLEHHHHHH,soluble
18,MLIFGVIMVTIIVLFHPILTNQRDTIVTSTFKEIASDACYYINLGVKVEDYEHEPLNNLVGNVKCNFLGISVDSTTGEIRVTLKFEVNGNAQDFASGIIEYIKRRITEIRGFTITDKGEIFYRDSKITIEILTLEHHHHHH,not soluble
19,KDADHIHHLIDQSLIAKGFQEILTNSLTKGAYNELLSKQEDAVPILNKLSEELAFMRPSLAFTGLETVAYNINRRQKNLKLFEWGKVYFKRGTKYNEYNRLSVFITGNQHAESWNTPSKTVDFFDMKAVVVQILEKLHIAVTQVQEIESNPLFSKGVIYKHAGKELVQFGYISQAALKATDVKQEVLFADFNADLLLELYSNKSKYKEIS,not soluble
20,MRNEEKRALRRELRGRRSQMGRDVRAAATVKINHLLKRYIKKGRKIGVYWPMGKELRLDGFVRAAQKRGAELYLPYIEPRSRRMWFTPYPADGVKQERKRGRAKLHVPQFAGRKKRVHDLNLLLVPVVGMDRLGYRLGQAGGYYDATLSAMKYRLQAKTVGVGFACQLVDRLPVEAHDRSLDGFVSEAGILCF,not soluble
